The target in data set [1] is T1, ApOrc1 (Orc1-1) (Aeropyrum pernix, UniProt Q9YEV6 1-395).
T1 sequence: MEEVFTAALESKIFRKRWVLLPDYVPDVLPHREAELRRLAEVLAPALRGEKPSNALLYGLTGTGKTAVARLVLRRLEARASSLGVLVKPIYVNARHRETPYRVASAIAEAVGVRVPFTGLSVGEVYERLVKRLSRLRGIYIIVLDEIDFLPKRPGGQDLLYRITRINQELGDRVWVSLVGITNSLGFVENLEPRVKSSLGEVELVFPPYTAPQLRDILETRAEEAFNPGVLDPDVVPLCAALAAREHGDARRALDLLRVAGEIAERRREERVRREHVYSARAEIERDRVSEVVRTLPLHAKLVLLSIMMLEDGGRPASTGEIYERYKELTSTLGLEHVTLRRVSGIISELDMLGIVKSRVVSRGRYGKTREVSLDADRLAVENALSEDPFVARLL
The experiment in a line: SPR; SPR: HBS-EP + 10 mM MgCl2, 2 mM ATP; BLI (room temperature) and MST: EDBS (25 mM Tris-HCl pH 8, 4% sucrose, 4 mM DTT, 80 ug/mL BSA, 10 mM Mg(OAc)2, 2 mM [truncated]); EMSA: 40 mM HEPES-KOH pH 8, 25 mM [truncated], 5% PAGE in TBE. The following applies: protein: recombinant; label: Biotin-14-dCTP by TdT. (Surface plasmon resonance follows binding to a sensor surface in real time, without labels.)

Data set [2] concerns the target T1, ApOrc1 (Orc1-1). Kind of data set: BLI; among the highest; SPR: HBS-EP + 10 mM MgCl2, 2 mM ATP; BLI (room temperature) and MST: EDBS (25 mM Tris-HCl pH 8, 4% sucrose, 4 mM DTT, 80 ug/mL BSA, 10 mM Mg(OAc)2, 2 mM [truncated]); EMSA: 40 mM HEPES-KOH pH 8, 25 mM [truncated], 5% PAGE in TBE. The conditions noted are these: protein: recombinant; label: 5' biotin. (Biolayer interferometry detects binding as a change in optical thickness at a sensor tip.)

Data set [3] concerns the target T1, ApOrc1 (Orc1-1). The experiment in a line: BLI; higher than L top; SPR: HBS-EP + 10 mM MgCl2, 2 mM ATP; BLI (room temperature) and MST: EDBS (25 mM Tris-HCl pH 8, 4% sucrose, 4 mM DTT, 80 ug/mL BSA, 10 mM Mg(OAc)2, 2 mM [truncated]); EMSA: 40 mM HEPES-KOH pH 8, 25 mM [truncated], 5% PAGE in TBE. The conditions noted are these: protein: recombinant; label: 5' biotin.

The target in data set [4] is T1, ApOrc1 (Orc1-1). Kind of data set: SPR; ATP, Mg2+; SPR: HBS-EP + 10 mM MgCl2, 2 mM ATP; BLI (room temperature) and MST: EDBS (25 mM Tris-HCl pH 8, 4% sucrose, 4 mM DTT, 80 ug/mL BSA, 10 mM Mg(OAc)2, 2 mM [truncated]); EMSA: 40 mM HEPES-KOH pH 8, 25 mM [truncated], 5% PAGE in TBE. The conditions noted are these: protein: recombinant; label: 5' biotin (BLI, SPR); fluorescent (MST).

The target in data set [5] is T2, SSB (Escherichia coli, UniProt P0AGE0 1-178). The experiment in a line: SPR; no significant difference from R top; SPR: HBS-EP + 10 mM MgCl2, 2 mM ATP; BLI (room temperature) and MST: EDBS (25 mM Tris-HCl pH 8, 4% sucrose, 4 mM DTT, 80 ug/mL BSA, 10 mM Mg(OAc)2, 2 mM [truncated]); EMSA: 40 mM HEPES-KOH pH 8, 25 mM [truncated], 5% PAGE in TBE. The following applies: chain copies: 4; label: 5' biotin (BLI, SPR); fluorescent (MST).

The target of data set [6] is T1, ApOrc1 (Orc1-1). Kind of data set: MST; SPR: HBS-EP + 10 mM MgCl2, 2 mM ATP; BLI (room temperature) and MST: EDBS (25 mM Tris-HCl pH 8, 4% sucrose, 4 mM DTT, 80 ug/mL BSA, 10 mM Mg(OAc)2, 2 mM [truncated]); EMSA: 40 mM HEPES-KOH pH 8, 25 mM [truncated], 5% PAGE in TBE. The conditions noted are these: protein: recombinant; label: 5' Cy3.
Data set [7] deals with T1, ApOrc1 (Orc1-1). Kind of data set: SPR; ATP, Mg2+; SPR: HBS-EP + 10 mM MgCl2, 2 mM ATP; BLI (room temperature) and MST: EDBS (25 mM Tris-HCl pH 8, 4% sucrose, 4 mM DTT, 80 ug/mL BSA, 10 mM Mg(OAc)2, 2 mM [truncated]); EMSA: 40 mM HEPES-KOH pH 8, 25 mM [truncated], 5% PAGE in TBE. The following applies: protein: recombinant; label: 5' biotin (BLI, SPR); fluorescent (MST). This is another data set of the same source.

For data set [8], the target named is T2, SSB. The experiment in a line: SPR; no significant difference from R bottom; SPR: HBS-EP + 10 mM MgCl2, 2 mM ATP; BLI (room temperature) and MST: EDBS (25 mM Tris-HCl pH 8, 4% sucrose, 4 mM DTT, 80 ug/mL BSA, 10 mM Mg(OAc)2, 2 mM [truncated]); EMSA: 40 mM HEPES-KOH pH 8, 25 mM [truncated], 5% PAGE in TBE. The conditions noted are these: chain copies: 4; label: 5' biotin (BLI, SPR); fluorescent (MST).

Data set [9] has as its target T1, ApOrc1 (Orc1-1). The experiment in a line: SPR; highest response; SPR: HBS-EP + 10 mM MgCl2, 2 mM ATP; BLI (room temperature) and MST: EDBS (25 mM Tris-HCl pH 8, 4% sucrose, 4 mM DTT, 80 ug/mL BSA, 10 mM Mg(OAc)2, 2 mM [truncated]); EMSA: 40 mM HEPES-KOH pH 8, 25 mM [truncated], 5% PAGE in TBE. The following applies: protein: recombinant; label: 5' biotin.

T2 sequence (P0AGE0 whole entry, the tested form may be a part): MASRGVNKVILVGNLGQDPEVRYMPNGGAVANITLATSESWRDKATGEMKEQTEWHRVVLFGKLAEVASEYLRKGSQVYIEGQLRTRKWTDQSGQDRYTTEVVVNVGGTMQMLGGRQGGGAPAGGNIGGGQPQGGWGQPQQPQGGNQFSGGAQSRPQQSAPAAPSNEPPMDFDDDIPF

B1: polyT(60) (ssDNA)
DNA: TTTTTTTTTTTTTTTTTTTTTTTTTTTTTTTTTTTTTTTTTTTTTTTTTTTTTTTTTTTT
Turning to B1, the binding result with ApOrc1 (Orc1-1) [1] was “binds”.

B2: L2 bottom (ssDNA)
DNA: TTTAAAACTGGGTTTTTGTATCATTATATTGGCAT
Consider B2, for which the binding result in the data set with ApOrc1 (Orc1-1) [2] was “binds”.

B3: L bottom (ssDNA)
DNA: TTTAAAACTGGGTTTTTGTATCATTATATTGGCATTCTTCAAGAGCACTATTCGGGAGGAGTATACGCTTC
For the molecule B3, in the data set with ApOrc1 (Orc1-1) [3], the binding result is on record as “binds”.

B4: R bottom (ssDNA)
DNA: TCAGGCTGTGCAGTTCTGGATTATAGTGTGTCTTTGTTTGTTTCTAGCTTGATTTG
Take B4: the binding signal with ApOrc1 (Orc1-1) [4] is ~3 fold SPR response vs R top. Besides, in the data set with SSB [5], the binding result is listed as “binds”.

B5: polyT(70) (ssDNA)
DNA: TTTTTTTTTTTTTTTTTTTTTTTTTTTTTTTTTTTTTTTTTTTTTTTTTTTTTTTTTTTTTTTTTTTTTT
As to B5, the binding result with ApOrc1 (Orc1-1) [6] was “binds”.

B6: polyA(60) (ssDNA)
DNA: AAAAAAAAAAAAAAAAAAAAAAAAAAAAAAAAAAAAAAAAAAAAAAAAAAAAAAAAAAAA
Turning to B6, the binding result in the data set with ApOrc1 (Orc1-1) [1] is “no binding”.

B7: R top (ssDNA)
DNA: CAAATCAAGCTAGAAACAAACAAAGACACACTATAATCCAGAACTGCACAGCCTGA
Turning to B7, in the data set with ApOrc1 (Orc1-1) [7], the binding signal was ~0.33 fold SPR response vs R bottom (stated as R bottom 3 times higher). For the same molecule, the binding result with SSB [8] is recorded as “binds”.

B8: R1 bottom (ssDNA)
DNA: TGTGTCTTTGTTTGTTTCTAGCTTGATTTG
Consider B8, for which, in the data set with ApOrc1 (Orc1-1) [9], the binding result was “binds”.

B9: polyA(70) (ssDNA)
DNA: AAAAAAAAAAAAAAAAAAAAAAAAAAAAAAAAAAAAAAAAAAAAAAAAAAAAAAAAAAAAAAAAAAAAAA
As for B9, the binding result in the data set with ApOrc1 (Orc1-1) [6] is “no binding”.

(Values after article PMC8287685, “Archaeal Orc1 protein interacts with T-rich single-stranded DNA”.)
